From patent publication US20180186873A1 (CEPHALON, published 2018)
Read-outs that look alike come from different tables or passages of the source.

Tests used:
recombinant human IL-5 [1] = molecular target: T1, recombinant human IL-5 (human, UniProt P05113 20-134); test: cell-based or functional assay
cynomolgus monkey IL-5 = cynomolgus monkey IL-5 (cynomolgus monkey); test: cell-based or functional assay
recombinant human IL-5 [2] = molecular target: T1, recombinant human IL-5; test: SPR
recombinant human IL-5 [3] = molecular target: T1, recombinant human IL-5; test: SPR; remark: listed apart in the source
recombinant human IL-5 [4] = molecular target: T2, recombinant human IL-5 (human, UniProt P05113 20-134); test: SPR Biacore, purified Ab on Protein A chip, IL-5 analyte, run 2.2
recombinant human IL-5 [5] = molecular target: T2, recombinant human IL-5; test: SPR Biacore, purified Ab on Protein A chip, IL-5 analyte, run 3.1
recombinant human IL-5 [6] = molecular target: T2, recombinant human IL-5
recombinant human IL-5 [7] = molecular target: T2, recombinant human IL-5; remark: listed apart in the source
recombinant human IL-5 [8] = molecular target: T2, recombinant human IL-5; remark: listed apart in the source
recombinant human IL-5 [9] = molecular target: T2, recombinant human IL-5; remark: listed apart in the source
recombinant human IL-5 [10] = molecular target: T2, recombinant human IL-5; remark: listed apart in the source
recombinant human IL-5 [11] = molecular target: T2, recombinant human IL-5; remark: listed apart in the source
recombinant human IL-5 [12] = molecular target: T2, recombinant human IL-5; remark: listed apart in the source
recombinant human IL-5 [13] = molecular target: T2, recombinant human IL-5; remark: listed apart in the source
recombinant human IL-5 [14] = molecular target: T2, recombinant human IL-5; remark: listed apart in the source
recombinant human IL-5 [15] = molecular target: T2, recombinant human IL-5; remark: listed apart in the source
recombinant human IL-5 [16] = molecular target: T3, recombinant human IL-5 (human, UniProt P05113 20-134); test: SPR; remark: listed apart in the source
recombinant human IL-5 [17] = molecular target: T3, recombinant human IL-5; test: SPR; remark: listed apart in the source
recombinant human IL-5 [18] = molecular target: T3, recombinant human IL-5; test: SPR; remark: listed apart in the source
recombinant human IL-5 [19] = molecular target: T3, recombinant human IL-5; test: SPR; remark: listed apart in the source
recombinant human IL-5 [20] = molecular target: T3, recombinant human IL-5; test: SPR; remark: listed apart in the source
recombinant human IL-5 [21] = molecular target: T3, recombinant human IL-5; test: SPR; remark: listed apart in the source
recombinant human IL-5 [22] = molecular target: T4, recombinant human IL-5 (human, UniProt P05113 20-134); test: Biacore SPR, purified Ab captured on Protein A, IL-5 injected, run 1.2
recombinant human IL-5 [23] = molecular target: T4, recombinant human IL-5; test: Biacore SPR, purified Ab captured on Protein A, IL-5 injected, run 2.1
recombinant human IL-5 [24] = molecular target: T4, recombinant human IL-5; remark: listed apart in the source
recombinant human IL-5 [25] = molecular target: T4, recombinant human IL-5; remark: listed apart in the source
recombinant human IL-5 [26] = molecular target: T4, recombinant human IL-5; remark: listed apart in the source
recombinant human IL-5 [27] = molecular target: T4, recombinant human IL-5; remark: listed apart in the source
recombinant human IL-5 [28] = molecular target: T4, recombinant human IL-5; remark: listed apart in the source
recombinant human IL-5 [29] = molecular target: T4, recombinant human IL-5; remark: listed apart in the source
recombinant human IL-5 [30] = molecular target: T4, recombinant human IL-5; remark: listed apart in the source
recombinant human IL-5 [31] = molecular target: T4, recombinant human IL-5; remark: listed apart in the source

B1: 3A5.046 (antibody, human IgG4 S228P, lambda)
heavy: QVQLQESGPGLVKPSQTLSLTCTVSGGSISNGGYYWSWIRQHPGKGLEWIGYIYYSGSTYYNPSLKSRVTISVDTSKNQFSLKLSSVTAADTAVYYCASLGNWFDYWGQGTLVTVSSASTKGPSVFPLAPCSRSTSESTAALGCLVKDYFPEPVTVSWNSGALTSGVHTFPAVLQSSGLYSLSSVVTVPSSSLGTKTYTCNVDHKPSNTKVDKRVESKYGPPCPPCPAPEFLGGPSVFLFPPKPKDTLYITREPEVTCVVVDVSQEDPEVQFNWYVDGVEVHNAKTKPREEQFNSTYRVVSVLTVLHQDWLNGKEYKCKVSNKGLPSSIEKTISKAKGQPREPQVYTLPPSQEEMTKNQVSLTCLVKGFYPSDIAVEWESNGQPENNYKTTPPVLDSDGSFFLYSRLTVDKSRWQEGNVFSCSVMHEALHNHYTQKSLSLSLG
light: SYVLTQPPSVSVAPGQTARITCGGNNIGSKNVYWYQQKPGQAPVLVVHDDSDRPSGIPERFSGSNSGNTATLTISRVEVGDEADYSCQVWDSSSDHVVFGGGTKLTVLGQPKAAPSVTLFPPSSEELQANKATLVCLISDFYPGAVTVAWKADSSPVKAGVETTTPSKQSNNKYAASSYLSLTPEQWKSHRSYSCQVTHEGSTVEKTVAPTECS
B1 was tested. Which “IC50, inhibition of IL-5 driven proliferation of TF-1.6G4 cells (Mean, pM)” value (recombinant human IL-5 [1]) did it give?
The value was 13.8 pM.

And the “IC50, inhibition of IL-5 driven proliferation of TF-1.6G4 cells (Mean, pM)” value (cynomolgus monkey IL-5)?
The value was 43.8 pM.

And the Kd (recombinant human IL-5 [2])?
The Kd was 0.0194 nM.

And the koff (recombinant human IL-5 [2])?
Its koff is 1.58e-05 s⁻¹.

And the kon (recombinant human IL-5 [2])?
Its kon is 816000 M⁻¹ s⁻¹.

And the Kd (recombinant human IL-5 [3])?
The Kd was 0.0217 nM.

What about the koff (recombinant human IL-5 [3]) of the same binder?
The koff was 1.84e-05 s⁻¹.

What about the kon (recombinant human IL-5 [3]) of the same binder?
The kon was 849000 M⁻¹ s⁻¹.

B2: 3A5.040 (antibody, human IgG4 S228P, lambda)
heavy: not shown
light: SYVLTQPPSVSVAPGQTARITCGGNNIGSKNVYWYQQKPGQAPVLVVHDDSDRPSGIPERFSGSNSGNTATLTISRVEVGDEADYSCQVWDSSSDHVVFGGGTKLTVLGQPKAAPSVTLFPPSSEELQANKATLVCLISDFYPGAVTVAWKADSSPVKAGVETTTPSKQSNNKYAASSYLSLTPEQWKSHRSYSCQVTHEGSTVEKTVAPTECS
For B2, which Kd (recombinant human IL-5 [4]) is on record?
The Kd was 0.133 nM.

What about the koff (recombinant human IL-5 [4]) of the same binder?
Its koff is 0.000106 s⁻¹.

What about the kon (recombinant human IL-5 [4]) of the same binder?
Its kon is 793000 M⁻¹ s⁻¹.

And the Kd (recombinant human IL-5 [5])?
Its Kd is 0.174 nM.

And the koff (recombinant human IL-5 [5])?
The koff was 0.00014 s⁻¹.

And the kon (recombinant human IL-5 [5])?
Its kon is 807000 M⁻¹ s⁻¹.

What about the Kd (recombinant human IL-5 [6]) of the same binder?
Its Kd is 0.135 nM.

And the koff (recombinant human IL-5 [6])?
The koff was 0.000105 s⁻¹.

What about the kon (recombinant human IL-5 [6]) of the same binder?
Its kon is 777000 M⁻¹ s⁻¹.

And the Kd (recombinant human IL-5 [7])?
Its Kd is 0.138 nM.

What about the koff (recombinant human IL-5 [7]) of the same binder?
The koff was 0.000109 s⁻¹.

And the kon (recombinant human IL-5 [7])?
Its kon is 789000 M⁻¹ s⁻¹.

And the Kd (recombinant human IL-5 [8])?
The Kd was 0.177 nM.

What about the koff (recombinant human IL-5 [8]) of the same binder?
Its koff is 0.000137 s⁻¹.

What about the kon (recombinant human IL-5 [8]) of the same binder?
Its kon is 772000 M⁻¹ s⁻¹.

And the Kd (recombinant human IL-5 [9])?
The Kd was 0.171 nM.

What about the koff (recombinant human IL-5 [9]) of the same binder?
The koff was 0.000132 s⁻¹.

What about the kon (recombinant human IL-5 [9]) of the same binder?
Its kon is 772000 M⁻¹ s⁻¹.

And the Kd (recombinant human IL-5 [10])?
Its Kd is 0.148 nM.

And the koff (recombinant human IL-5 [10])?
The koff was 0.000115 s⁻¹.

And the kon (recombinant human IL-5 [10])?
Its kon is 776000 M⁻¹ s⁻¹.

And the Kd (recombinant human IL-5 [11])?
Its Kd is 0.134 nM.

What about the koff (recombinant human IL-5 [11]) of the same binder?
Its koff is 0.000103 s⁻¹.

What about the kon (recombinant human IL-5 [11]) of the same binder?
The kon was 773000 M⁻¹ s⁻¹.

What about the Kd (recombinant human IL-5 [12]) of the same binder?
Its Kd is 0.149 nM.

What about the koff (recombinant human IL-5 [12]) of the same binder?
The koff was 0.000114 s⁻¹.

And the kon (recombinant human IL-5 [12])?
The kon was 769000 M⁻¹ s⁻¹.

And the Kd (recombinant human IL-5 [13])?
Its Kd is 0.153 nM.

What about the koff (recombinant human IL-5 [13]) of the same binder?
The koff was 0.00012 s⁻¹.

And the kon (recombinant human IL-5 [13])?
Its kon is 784000 M⁻¹ s⁻¹.

What about the Kd (recombinant human IL-5 [14]) of the same binder?
Its Kd is 0.15 nM.

And the koff (recombinant human IL-5 [14])?
The koff was 0.000117 s⁻¹.

And the kon (recombinant human IL-5 [14])?
Its kon is 779000 M⁻¹ s⁻¹.

What about the Kd (recombinant human IL-5 [15]) of the same binder?
The Kd was 0.151 nM.

What about the koff (recombinant human IL-5 [15]) of the same binder?
Its koff is 0.000117 s⁻¹.

What about the kon (recombinant human IL-5 [15]) of the same binder?
The kon was 775000 M⁻¹ s⁻¹.

B3: 3A5.040 (antibody, human IgG4 S228P, lambda)
heavy: not shown
light: SYVLTQPPSVSVAPGQTARITCGGNNIGSKNVYWYQQKPGQAPVLVVHDDSDRPSGIPERFSGSNSGNTATLTISRVEVGDEADYSCQVWDSSSDHVVFGGGTKLTVLGQPKAAPSVTLFPPSSEELQANKATLVCLISDFYPGAVTVAWKADSSPVKAGVETTTPSKQSNNKYAASSYLSLTPEQWKSHRSYSCQVTHEGSTVEKTVAPTECS
Which Kd (recombinant human IL-5 [16]) does the source give for B3 here?
The Kd was 0.148 nM.

And the koff (recombinant human IL-5 [16])?
The koff was 0.000106 s⁻¹.

And the kon (recombinant human IL-5 [16])?
The kon was 717000 M⁻¹ s⁻¹.

What about the Kd (recombinant human IL-5 [17]) of the same binder?
The Kd was 0.16 nM.

And the koff (recombinant human IL-5 [17])?
Its koff is 0.000115 s⁻¹.

What about the kon (recombinant human IL-5 [17]) of the same binder?
The kon was 720000 M⁻¹ s⁻¹.

What about the Kd (recombinant human IL-5 [18]) of the same binder?
The Kd was 0.123 nM.

And the koff (recombinant human IL-5 [18])?
Its koff is 8.96e-05 s⁻¹.

What about the kon (recombinant human IL-5 [18]) of the same binder?
The kon was 727000 M⁻¹ s⁻¹.

What about the Kd (recombinant human IL-5 [19]) of the same binder?
Its Kd is 0.128 nM.

And the koff (recombinant human IL-5 [19])?
The koff was 9.21e-05 s⁻¹.

And the kon (recombinant human IL-5 [19])?
The kon was 718000 M⁻¹ s⁻¹.

And the Kd (recombinant human IL-5 [20])?
The Kd was 0.143 nM.

What about the koff (recombinant human IL-5 [20]) of the same binder?
Its koff is 9.95e-05 s⁻¹.

And the kon (recombinant human IL-5 [20])?
The kon was 696000 M⁻¹ s⁻¹.

And the Kd (recombinant human IL-5 [21])?
Its Kd is 0.139 nM.

And the koff (recombinant human IL-5 [21])?
The koff was 9.91e-05 s⁻¹.

And the kon (recombinant human IL-5 [21])?
Its kon is 715000 M⁻¹ s⁻¹.

B4: 3A5.040 (antibody, human IgG4 S228P, lambda)
heavy: not shown
light: SYVLTQPPSVSVAPGQTARITCGGNNIGSKNVYWYQQKPGQAPVLVVHDDSDRPSGIPERFSGSNSGNTATLTISRVEVGDEADYSCQVWDSSSDHVVFGGGTKLTVLGQPKAAPSVTLFPPSSEELQANKATLVCLISDFYPGAVTVAWKADSSPVKAGVETTTPSKQSNNKYAASSYLSLTPEQWKSHRSYSCQVTHEGSTVEKTVAPTECS
What does the source list for B4?
Kd (recombinant human IL-5 [22]): 0.151 nM; koff (recombinant human IL-5 [22]): 0.000111 s⁻¹; kon (recombinant human IL-5 [22]): 735000 M⁻¹ s⁻¹; Kd (recombinant human IL-5 [23]): 0.142 nM; koff (recombinant human IL-5 [23]): 0.000105 s⁻¹; kon (recombinant human IL-5 [23]): 737000 M⁻¹ s⁻¹; Kd (recombinant human IL-5 [24]): 0.18 nM; koff (recombinant human IL-5 [24]): 0.000133 s⁻¹; kon (recombinant human IL-5 [24]): 740000 M⁻¹ s⁻¹; Kd (recombinant human IL-5 [25]): 0.115 nM; koff (recombinant human IL-5 [25]): 8.22e-05 s⁻¹; kon (recombinant human IL-5 [25]): 714000 M⁻¹ s⁻¹; Kd (recombinant human IL-5 [26]): 0.139 nM; koff (recombinant human IL-5 [26]): 0.000101 s⁻¹; kon (recombinant human IL-5 [26]): 728000 M⁻¹ s⁻¹; Kd (recombinant human IL-5 [27]): 0.15 nM; koff (recombinant human IL-5 [27]): 0.00011 s⁻¹; kon (recombinant human IL-5 [27]): 732000 M⁻¹ s⁻¹; Kd (recombinant human IL-5 [28]): 0.129 nM; koff (recombinant human IL-5 [28]): 9.36e-05 s⁻¹; kon (recombinant human IL-5 [28]): 727000 M⁻¹ s⁻¹; Kd (recombinant human IL-5 [29]): 0.163 nM; koff (recombinant human IL-5 [29]): 0.000116 s⁻¹; kon (recombinant human IL-5 [29]): 713000 M⁻¹ s⁻¹; Kd (recombinant human IL-5 [30]): 0.143 nM; koff (recombinant human IL-5 [30]): 0.000104 s⁻¹; kon (recombinant human IL-5 [30]): 728000 M⁻¹ s⁻¹; Kd (recombinant human IL-5 [31]): 0.163 nM; koff (recombinant human IL-5 [31]): 0.000116 s⁻¹; kon (recombinant human IL-5 [31]): 713000 M⁻¹ s⁻¹
